Target: rat nerve growth factor gamma (rat)
Experiment: kinetic constants for the interaction of BAIT with proteinases; method not described

Sequence of human BAIT (Brain-Associated Inhibitor of Tissue-Type Plasminogen Activator), mature protein expressed in baculovirus/Sf9 cells and purified (Q99574 19-410): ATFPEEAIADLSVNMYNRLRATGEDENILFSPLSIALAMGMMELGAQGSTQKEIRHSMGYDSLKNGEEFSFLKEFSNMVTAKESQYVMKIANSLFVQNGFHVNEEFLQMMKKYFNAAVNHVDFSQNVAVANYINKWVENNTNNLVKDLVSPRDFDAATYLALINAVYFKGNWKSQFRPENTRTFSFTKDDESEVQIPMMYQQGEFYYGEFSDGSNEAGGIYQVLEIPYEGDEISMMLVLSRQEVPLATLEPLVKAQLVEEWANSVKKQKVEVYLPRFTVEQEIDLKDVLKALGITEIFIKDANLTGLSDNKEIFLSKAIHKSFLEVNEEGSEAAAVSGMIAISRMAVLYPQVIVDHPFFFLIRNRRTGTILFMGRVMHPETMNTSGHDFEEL

human BAIT (Brain-Associated Inhibitor of Tissue-Type Plasminogen Activator), mature protein expressed in baculovirus/Sf9 cells and purified (from UniProt Q99574 19-410)
K: 1.3 µM
k: 0.0086 s⁻¹
ki: 6500 M⁻¹ s⁻¹

Source: patent US20040203101A1
